{"source": "patent US20250177505A1", "about": "“CANCER VACCINE COMPRISING EPITOPE OF C-MET AND EPITOPE OF HIF1ALPHA, AND USE THEREOF” (KOREA UNIVERSITY RESEARCH AND BUSINESS FOUNDATION, priority 2022, published 2025)", "molecules": {"B1": {"name": "IFN-γ: recombinant mouse IFN-γ, key cytokine of T-helper type 1 immunity (protein, UniProt P01580 23-155, looked up)", "Interferon gamma": "HGTVIESLESLNNYFNSSGIDVEEKSLFLDIWRNWQKDGDMKILQSQIISFYLRLFEVLKDNQAISNNISVIESHLITTFFSNSKAKKDAFMSIAKFEVNNPQVQRQAFNELIRVVHQLLPESSLRKRKRSRC"}}, "key": {"[1]": {"system": "bone marrow monocytes (BMMs)", "assay": "Osteoclastogenesis analysis in bone marrow monocytes", "assay_type": "cell-based, C3(1)-Tag mice", "conditions": "BMM with M-CSF 30 ng/mL, RANKL 100 ng/mL, IFN-γ 50, 100 ng/mL; vs positive control", "procedure": "Primary mouse bone marrow monocytes (BMMs) were isolated from the hind limb bones (two femurs and two tibiae) of 4 to 8 week-old C3(1)-Tag mice. The mouse BMMs were flushed into a 15 ml tube via 8 ml of a serum-free 2 mM EDTA α-MEM medium. A Lymphocyte Separation Medium (LSM; MP Biomedicals; Catalog No. 50494) was dispensed into a new tube, 8 ml of the flushed BMMs were gently added thereon and centrifuged at 1600 rpm for 20 minutes at room temperature. The isolated BMMs were inoculated at 3×10^5 cells/well in a 48-well plate with 0.5 mL of a medium per well and incubated in α-MEM containing 10% FBS and 1% antibiotics.\nBMMs in a negative control group were treated with M-CSF (30 ng/mL), BMMs in a positive control group were treated with M-CSF and RANKL (100 ng/mL), and BMMs in an experimental group were stimulated by treatment with M-CSF, RANKL, and IFN-γ(50, 100 ng/mL). On days 1, 3, 5, and 7 of culture, the medium was replaced, and each experimental group was treated with M-CSF, RANKL, and IFN-γ. After 9 days of culture, staining was performed using a TRAP staining kit (KT-008, KAMIYA biomedical company, Seattle, WA, USA) after fixing the cells with 10% formalin. For each well, TRAP-positive (TRAP^+) multinucleated cells (TRAP^+ MNC) were counted. All the experiments were independently repeated three times."}, "[2]": {"system": "M6-bone cells", "assay": "Western blot of IFN-γ-treated cells", "assay_type": "cell-based, mouse", "conditions": "100 ng/ml IFN-γ, 18 hours", "procedure": "M6 and M6-bone cells were stimulated with 100 ng/ml recombinant mouse IFN-γ and cultured in a medium containing 1% FBS for 18 hours. The cells were lysed in a buffered mixture of a PRO-PREPTM protein extraction solution (iNtRON Biotechnology, 17081) and a phosphatase inhibitor cocktail (Gen DEPOT, p3200-001). Protein concentration was measured using the Bradford assay (Bio-rad, 500-0006, Hercules, CA, USA). 30 μg of the protein was separated by SDS-polyacrylamide gel electrophoresis and transferred to a PVDF membrane (10600023), and then the membrane was blocked with Tris-buffered saline containing 0.05% Tween 20 and 5% non-fat milk powder for 1 hour. The PVDF membrane was incubated overnight at 4° C. with primary antibodies. HIF1α (NB100-105, Novusbio), c-MET, Akt (Cat #9272), and p-Akt (Cat #9271) antibodies were purchased from Cell Signaling Technology (Beverly, MA, USA), and β-actin (Cat #A5316) was purchased from Sigma (Saint Louis, MO, USA). Subsequently, a horseradish peroxidase-conjugated secondary antibody was cultured at room temperature for 1 hour. Immunoreactive bands were detected with a chemiluminescent reagent (Cat #RPN2106)."}}, "note": "“Also recorded” adds a separate entry of the source.", "data": [{"molecule": "B1", "values": [{"measurement": "osteoclastogenesis in vitro", "setting": "[1]", "result": "completely inhibited; also recorded: inhibits"}, {"measurement": "Expression of c-MET", "setting": "[2]", "result": "decreased"}, {"measurement": "Expression of p-Akt", "setting": "[2]", "result": "decreased"}]}]}
